Results taken from EP4814012A1 (The United Bio-Technology (Hengqin) Co., Ltd., dated 2026).

Experiments:
human IL-4Rα on cells [1] = biological target: T1, human IL-4Rα on cells (human, UniProt P24394 26-825); assay: cell-based or functional assay
hIL-4Rα.ECD [2] = biological target: T2, hIL-4Rα.ECD (human, UniProt P24394 26-232); assay: SPR, antibody captured by anti-human Fc on CM5, hIL-4Rα.ECD analyte
T2 construct: extracellular domain; also called hIL-4Rα protein

human IL-4Rα on cells [3] = biological target: T1, human IL-4Rα on cells; assay: cell-based or functional assay; remark: listed apart in the source
hIL-4Rα.ECD [4] = biological target: T2, hIL-4Rα.ECD; assay: SPR (Biacore 8K), antibody captured, hIL-4Rα.ECD analyte, 25°C
human IL-4Rα on cells [5] = biological target: T1, human IL-4Rα on cells; assay: cell-based or functional assay; remark: listed apart in the source
human IL-4Rα on cells [6] = biological target: T1, human IL-4Rα on cells; assay: cell-based or functional assay; remark: listed apart in the source
human IL-4Rα on cells [7] = biological target: T1, human IL-4Rα on cells; assay: flow cytometry on CHO-K1 cells overexpressing hIL-4Rα
hTSLP [8] = biological target: T3, hTSLP (human, UniProt Q969D9 29-159); assay: cell-based or functional assay
hTSLP [9] = biological target: T3, hTSLP; assay: SPR (Biacore 8K), antibody captured, hTSLP analyte, 25°C
human IL-4Rα on cells [10] = biological target: T1, human IL-4Rα on cells; assay: cell-based or functional assay; remark: listed apart in the source
hIL-4Rα.ECD [11] = biological target: T2, hIL-4Rα.ECD; assay: SPR (Biacore 8K), method same as 1.9, hIL-4Rα.ECD analyte
hIL-4Rα.ECD [12] = biological target: T2, hIL-4Rα.ECD; assay: SPR (Biacore 8K), antibody captured by anti-mouse Fc, hIL-4Rα.ECD analyte, 25°C

Binder | IC50 (pM), hIL-13 inhibitory activity, reporter gene assay (HEK-293T.STAT6-GFP cells) (human IL-4Rα on cells [1]) [pM] | Kd (hIL-4Rα.ECD [2]) [nM] | koff (hIL-4Rα.ECD [2]) [s⁻¹] | kon (hIL-4Rα.ECD [2]) [M⁻¹ s⁻¹] | IC50(pM), hIL-13 Blocking Activity, TF-1 proliferation inhibition assay (human IL-4Rα on cells [3]) [pM] | Kd (hIL-4Rα.ECD [4]) [nM] | koff (hIL-4Rα.ECD [4]) [s⁻¹] | kon (hIL-4Rα.ECD [4]) [M⁻¹ s⁻¹] | IC50 (nM), Cell-based Assay Data (hIL-13), STAT6-GFP reporter gene assay (human IL-4Rα on cells [5]) [nM] | IC50(pM), hIL-4 Blocking Activity by Reporter Gene Assay (human IL-4Rα on cells [6]) [pM] | EC50 (human IL-4Rα on cells [7]) [nM] | other results
Dupilumab (antibody, V domains shown) VH: EVQLVESGGGLEQPGGSLRLSCAGSGFTFRDYAMTWVRQAPGKGLEWVSSISGSGGNTYYADSVKGRFTISRDNSKNTLYLQMNSLRAEDTAVYYCAKDRLSITIRPRYYGLDVWGQGTTVTVSS VL: DIVMTQSPLSLPVTPGEPASISCRSSQSLLYSIGYNYLDWYLQKSGQSPQLLIYLGSNRASGVPDRFSGSGSGTDFTLKISRVEAEDVGFYYCMQALQTPYTFGQGTKLEIKR | 41 | 0.0379 | 5.4e-05 | 1.43e+06 | 140 | 0.0616 | 5.7e-05 | 924000 | 0.81 | 201 | 0.3 | –
m8 (antibody, human IgG4 S228P, kappa, V domains shown, also called m8 molecule; anti-IL-4R antibody m8) VH: QVQLVQSGAEVKKPGASVKVSCKASGYTFTTYYIYWVRQAPGQGLEWMGGSNPSTGGTLDNEKFKTRVTMTVDKSTSTAYMELSSLRSEDTAVYYCTRSGRYAPFTYWGQGTLVTVSS VL: DIQMTQSPSSLSASVGDRVTITCKASQDVSTSVAWYQQKPGKAPKLLIYSASYRFTGVPSRFSGSGSGTDFTFTISSLQPEDFATYYCQHYSTTPFTFGQGTKLEIKR | 80 | 0.0437 | 3.95e-05 | 903000 | 125 | 0.0489 | 1.39e-05 | 285000 | – | 16.4 | – | IC50(pM), hIL-4 inhibitory activity, reporter gene assay (HEK-293T.STAT6-GFP cells) (human IL-4Rα on cells [10]): 210 pM
1.34.4-z18 (antibody, human IgG4, V domains shown, Humanized with back-mutations; also called 1.34.4-z18 humanized antibody molecule) VH: QVQLVQSGAEVKKPGASVKVSCKASGYTFTTYYIYWVRQAPGQGLEWMGGSNPSTGGTLFNEKFKTRVTMTVDKSTSTAYMELSSLRSEDTAVYYCTRSGRYAPFTYWGQGTLVTVSS VL: DIQMTQSPSSLSASVGDRVTITCKASQDVSTSVAWYQQKPGKAPKLLIYSASYRFTGVPSRFSGSGSGTDFTFTISSLQPEDFATYYCQQYSTTPFTFGQGTKLEIK | – | – | – | – | – | – | – | – | – | – | – | Kd (hIL-4Rα.ECD [11]): 0.567 nM; koff (hIL-4Rα.ECD [11]): 0.000137 s⁻¹; kon (hIL-4Rα.ECD [11]): 242000 M⁻¹ s⁻¹
m21 (antibody, V domains shown, captured by anti-human Fc); also called m21 molecule) VH: QVQLVQSGAEVKKPGASVKVSCKASGYTFTTYYIYWVRQAPGQGLEWMGGSNPSTGGTLENEKFKTRVTMTVDKSTSTAYMELSSLRSEDTAVYYCTRSGRYAPFTYWGQGTLVTVSS VL: DIQMTQSPSSLSASVGDRVTITCKASQDVSTSVAWYQQKPGKAPKLLIYSASYRFTGVPSRFSGSGSGTDFTFTISSLQPEDFATYYCVHYSTTPFTFGQGTKLEIK | – | 0.133 | 7.76e-05 | 582000 | 66.5 | – | – | – | – | 286 | – | –
1.34.4 (humanized, CDR-grafted) (antibody, V domains shown) VH: QVQLVQSGAEVKKPGASVKVSCKASGYTFTTYYIYWVRQAPGQGLEWMGGSNPSTGGTLFNEKFKTRVTMTRDTSTSTVYMELSSLRSEDTAVYYCARSGRYAPFTYWGQGTLVTVSS VL: DIQMTQSPSSLSASVGDRVTITCKASQDVSTSVAWYQQKPGKAPKLLIYSASYRFTGVPSRFSGSGSGTDFTLTISSLQPEDFATYYCQQYSTTPFTFGQGTKLEIK | – | – | – | – | – | – | – | – | – | – | – | Kd (hIL-4Rα.ECD [11]): 0.512 nM; koff (hIL-4Rα.ECD [11]): 0.0001 s⁻¹; kon (hIL-4Rα.ECD [11]): 196000 M⁻¹ s⁻¹
1.34.4-Murine (antibody, V domains shown, See recheck) VH: QVQLQQPGAELVKPGASMKLSCKASGYTFTTYYIYWVKQRPGQGLEWIGGSNPSTGGTLFNEKFKTKATLTVDKYSSTAYMELSSLTFEDSAVYFCTRSGRYAPFTYWGQGTLVTVSA VL: DIVMTQSHKVLSTSVGDRVIITCKASQDVSTSVAWYQQRPGHSPKLLIYSASYRFTGVPDRFTGSGSGTDFTFTISSVQAEDLAVYNCQQYSTTPFTFGSGTKLEIK | – | – | – | – | – | – | – | – | 1.38 | – | 0.35 | Kd (hIL-4Rα.ECD [12]): 0.369 nM; koff (hIL-4Rα.ECD [12]): 0.000133 s⁻¹; kon (hIL-4Rα.ECD [12]): 361000 M⁻¹ s⁻¹

The next lines start with results.

IC50 (pM), hIL-13 inhibitory activity, reporter gene assay (HEK-293T.STAT6-GFP cells) (human IL-4Rα on cells [1]) [pM] | Kd (hIL-4Rα.ECD [2]) [nM] | koff (hIL-4Rα.ECD [2]) [s⁻¹] | kon (hIL-4Rα.ECD [2]) [M⁻¹ s⁻¹] | IC50(pM), hIL-13 Blocking Activity, TF-1 proliferation inhibition assay (human IL-4Rα on cells [3]) [pM] | Kd (hIL-4Rα.ECD [4]) [nM] | koff (hIL-4Rα.ECD [4]) [s⁻¹] | kon (hIL-4Rα.ECD [4]) [M⁻¹ s⁻¹] | IC50 (nM), Cell-based Assay Data (hIL-13), STAT6-GFP reporter gene assay (human IL-4Rα on cells [5]) [nM] | IC50(pM), hIL-4 Blocking Activity by Reporter Gene Assay (human IL-4Rα on cells [6]) [pM] | EC50 (human IL-4Rα on cells [7]) [nM] | Binder | other results
66.5 | – | – | – | – | 0.0659 | 3.48e-05 | 528000 | – | – | – | MTM (bispecific antibody, human IgG2, lambda, the junction should be checked against them; also called MTM bispecific antibody; MTM molecule) heavy: QMQLVESGGGVVQPGRSLRLSCAASGFTFRTYGMHWVRQAPGKGLEWVAVIWYDGSNKHYADSVKGRFTITRDNSKNTLNLQMNSLRAEDTAVYYCARAPQWELVHEAFDIWGQGTMVTVSSASTKGPSVFPLAPCSRSTSESTAALGCLVKDYFPEPVTVSWNSGALTSGVHTFPAVLQSSGLYSLSSVVTVPSSNFGTQTYTCNVDHKPSNTKVDKTVERKCCVECPPCPAPPVAGPSVFLFPPKPKDTLMISRTPEVTCVVVDVSHEDPEVQFNWYVDGVEVHNAKTKPREEQFNSTFRVVSVLTVVHQDWLNGKEYKCKVSNKGLPAPIEKTISKTKGQPREPQVYTLPPSREEMTKNQVSLTCLVKGFYPSDIAVEWESNGQPENNYKTTPPMLDSDGSFFLYSKLTVDKSRWQQGNVFSCSVMHEALHNHYTQKSLSLSPGKGGGGSGGGGSQVQLVQSGAEVKKPGASVKVSCKASGYTFTTYYIYWVRQAPGQCLEWMGGSNPSTGGTLDNEKFKTRVTMTVDKSTSTAYMELSSLRSEDTAVYYCTRSGRYAPFTYWGCGTLVTVSSGGGGSGGGGSGGGGSGGGGSDIQMTQSPSSLSASVGDRVTITCKASQDVSTSVAWYQQKPGKAPKLLIYSASYRFTGVPSRFSGSGSGTDFTFTISSLQPEDFATYYCQHYSTTPFTFGCGTKLEIK light: SYVLTQPPSVSVAPGQTARITCGGNNLGSKSVHWYQQKPGQAPVLVVYDDSDRPSWIPERFSGSNSGNTATLTISRGEAGDEADYYCQVWDSSSDHVVFGGGTKLTVLGQPKAAPSVTLFPPSSEELQANKATLVCLISDFYPGAVTVAWKADSSPVKAGVETTTPSKQSNNKYAASSYLSLTPEQWKSHRSYSCQVTHEGSTVEKTVAPTECS | IC50 (nM), hTSLP inhibitory activity, reporter gene assay (HEK-293T-hTSLPR-IL7Ra-STAT5-Luciferase cells) (hTSLP [8]): 0.14 nM; Kd (hTSLP [9]): 0.00296 nM; koff (hTSLP [9]): 3.5e-05 s⁻¹; kon (hTSLP [9]): 1.18e+07 M⁻¹ s⁻¹; IC50(pM), hIL-4 inhibitory activity, reporter gene assay (HEK-293T.STAT6-GFP cells) (human IL-4Rα on cells [10]): 170 pM
– | 0.196 | 0.000112 | 568000 | 58.8 | – | – | – | – | 249 | – | m27 (antibody, V domains shown, captured by anti-human Fc); also called m27 molecule) VH: QVQLVQSGAEVKKPGASVKVSCKASGYTFTTYYIYWVRQAPGQGLEWMGGSNPSTGGTLENEKFKTRVTMTVDKSTSTAYMELSSLRSEDTAVYYCTRSGRYATFTYWGQGTLVTVSS VL: DIQMTQSPSSLSASVGDRVTITCKASQDVSTSVAWYQQKPGKAPKLLIYSASYRFTGVPSRFSGSGSGTDFTFTISSLQPEDFATYYCVHYSTTPFTFGQGTKLEIK | –
– | – | – | – | – | – | – | – | 2.23 | – | 0.28 | 2.46.13-Murine (antibody, V domains shown, See recheck) VH: DVKLVESGGGLVKLGGSLKLSCAASGFTFSSYYMSWVRQTPEKRLELVAAINSNGGSTYSPDTVKGRFTISRDNAKNTLYLQMSSLKSEDTALYYCARRSLLGNHRDWYFDVWGAGTTVTVSS VL: DIQMTQSPASLSASVGETVTITCRASENIYSYLAWYQQKQGKSPQLLVYNAKTLADGVPSRFSGSGSGTQFSLKINTLQPEDFGSYYCLHHYGTPLTFGAGTKLELK | Kd (hIL-4Rα.ECD [12]): 0.306 nM; koff (hIL-4Rα.ECD [12]): 0.000118 s⁻¹; kon (hIL-4Rα.ECD [12]): 385000 M⁻¹ s⁻¹
133 | – | – | – | – | 0.0598 | 4.35e-05 | 727000 | – | – | – | MMT (bispecific antibody, human IgG4 S228P, kappa, the junction should be checked against them; also called MMT bispecific antibody; MMT molecule) heavy: not shown light: DIQMTQSPSSLSASVGDRVTITCKASQDVSTSVAWYQQKPGKAPKLLIYSASYRFTGVPSRFSGSGSGTDFTFTISSLQPEDFATYYCQHYSTTPFTFGQGTKLEIKRTVAAPSVFIFPPSDEQLKSGTASVVCLLNNFYPREAKVQWKVDNALQSGNSQESVTEQDSKDSTYSLSSTLTLSKADYEKHKVYACEVTHQGLSSPVTKSFNRGEC | IC50 (nM), hTSLP inhibitory activity, reporter gene assay (HEK-293T-hTSLPR-IL7Ra-STAT5-Luciferase cells) (hTSLP [8]): 0.3 nM; Kd (hTSLP [9]): 0.0188 nM; koff (hTSLP [9]): 5.88e-05 s⁻¹; kon (hTSLP [9]): 3.14e+06 M⁻¹ s⁻¹
